Laboratory results taken from article PMC7344962 (Antibodies, 2020).
Residue numbers refer to the chain shown, from its start. Values joined by “and” are separate entries in the source; they are usually repeats but may differ in a detail not shown here. Identical values can stand only once.

B1: scFv S1A0 (scFv, V domains shown)
VH: QVQLQQSGAELVRPGVSVKISCKGSGYTFTDYGMHWVKQSHAKSLEWIGIISTYSGDASYNQKFKGKATMTVDKSSSTAYMELARLTSEDSAIYYCARSSTWYYFDYWGQGTTLTVSS
VL: DIQVTQTTSSLSASLGDRVTISCRASQDISNYLNWYQQKPDGTVKLLIYYTSRLHSGVPSRFSGSGSGTDYSLTISNLEQEDIATYFCQQGNTLPYTFGGGTKLEIK
notes: VH A: wild-type heavy variable domain of the murine monoclonal IgG2a antibody 4F11E12 (anti-SAG1); the antibody is also in PDB 1YNT; (Gly4Ser)3 peptide linker; VL 0: wild-type light variable domain of the murine monoclonal IgG2a antibody 4F11E12 (anti-SAG1); VH-linker-VL orientation; also called wild-type scFv; WT scFv; source: E. coli HB2151 periplasm, purified (HisTrap HP); not shown: …
B2: scFv S1C4 (scFv, V domains shown)
VH: B1 VH with S40R, H41P, A42G, K43H, S44G
VL: B1 VL with V4M, T8P, Q80P, F87Y
notes: VH C: as VH A of m1 with only the cluster II substitutions (C-C' loop); numbers count on: IMGT numbering; (Gly4Ser)3 peptide linker; VL 4: as VL 0 of m1 with the stated changes; VH-linker-VL orientation; source: E. coli HB2151 periplasm; periplasmic extract loaded on HiScreen Capto L, purified; not shown: Gly3AlaSerHis6, C-terminal, kept
B3: scFv S1A4 (scFv, V domains shown)
VH: B1 VH
VL: B1 VL with V4M, T8P, Q80P, F87Y
notes: VH A: as the VH of m1 (wild-type VH of 4F11E12); (Gly4Ser)3 peptide linker; VL 4: as VL 0 of m1 with the stated changes; numbers count on: IMGT numbering; VH-linker-VL orientation; source: E. coli HB2151 periplasm; periplasmic extract loaded on HiScreen Capto L, purified; not shown: Gly3AlaSerHis6, C-terminal, kept
B4: scFv S1D4 (scFv, V domains shown)
VH: QVQLQQSGAELVRPGTSVKISCKASGYTFTDYGMHWVKQRPGHGLEWIGIISTYSGDASYNQKFKGKATMTVDKSSSTAYMQLSSLTSEDSAVYYCARSSTWYYFDYWGQGTLVTVSA
VL: B1 VL with V4M, T8P, Q80P, F87Y
notes: VH D: as VH A of m1 with the cluster II and cluster III substitutions (VH Z without cluster I); numbers count on: IMGT numbering; (Gly4Ser)3 peptide linker; VL 4: as VL 0 of m1 with the stated changes; VH-linker-VL orientation; source: E. coli HB2151 periplasm; periplasmic extract loaded on HiScreen Capto L, purified; not shown: Gly3AlaSerHis6, C-terminal, kept
B5: scFv S1B4 (scFv, V domains shown)
VH: B4 VH with R40S, P41H, G42A, H43K, G44S
VL: B1 VL with V4M, T8P, Q80P, F87Y
notes: VH B: as VH A of m1 with only the cluster III substitutions; (Gly4Ser)3 peptide linker; VL 4: as VL 0 of m1 with the stated changes; numbers count on: IMGT numbering; VH-linker-VL orientation; source: E. coli HB2151 periplasm; periplasmic extract loaded on HiScreen Capto L, purified; not shown: Gly3AlaSerHis6, C-terminal, kept

Target: T1, major surface antigen 1 (SAG1) of Toxoplasma gondii (Toxoplasma gondii, strain , UniProt P13664)
T1 construct: major surface antigen 1 (SAG1) of Toxoplasma gondii; SAG1 in complex with the parent antibody is in PDB 1YNT (cited); also called antigen SAG1
T1 sequence (P13664 48-336): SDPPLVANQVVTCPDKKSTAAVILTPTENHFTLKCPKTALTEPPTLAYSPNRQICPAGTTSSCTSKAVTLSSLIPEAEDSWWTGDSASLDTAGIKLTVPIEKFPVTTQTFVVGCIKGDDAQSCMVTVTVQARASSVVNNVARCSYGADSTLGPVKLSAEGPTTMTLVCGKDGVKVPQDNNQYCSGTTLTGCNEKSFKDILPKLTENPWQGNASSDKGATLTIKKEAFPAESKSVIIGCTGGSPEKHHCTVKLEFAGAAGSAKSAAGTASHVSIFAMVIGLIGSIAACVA
Experiment: SPR; SAG1 covalently immobilised (1000 RU, EDC/NHS) on a CM5S chip; T200, 25 °C, HBS-EP+; single cycle kinetics with scFv at 600-200-66-22-7.5 nM, 50 µL/min; Langmuir 1:1 then two-state fitting model, similar Kd values in both
Conditions: both partners purified

| Binder | Kd |
| --- | --- |
| B1 | ~200 nM |
| B2 | ~200 nM and < 100 nM |
| B3 | ~200 nM |
| B4 | ~200 nM |
| B5 | ~200 nM |
